This is an account of results in patent US11419945B2, “Antigen binding proteins” (Glaxo Group Limited, priority 2011, dated 2022).

Holding throughout (format): binding
One experiment deals with T1, Human in house BCMA (Homo sapiens, UniProt Q02223).
T1 construct: CD33 signal peptide (N); TEV site (internal); Fc (C); made in house
The experiment can be described thus: ProteOn analysis of CA8 chimeric and humanised constructs, human in house BCMA. The following applies: for off rate: Run 2, ProteOn, recombinant human BCMA, no affinity values obtained; for KD: Run 2, Human in house BCMA, ProteOn, 25° C. The protocol:
(§1) The initial screen of CA8 chimeric and humanised variants was carried out on the ProteOn XPR36 (Biorad). The method was as follows; Protein A was immobilised on a GLC chip (Biorad, Cat No: 176-5011) by primary amine coupling, CA8 variants were then captured on this surface and recombinant human BCMA (in house or commercial US Biological, B0410) materials (run 2 only)) passed over at 256, 64, 16, 4, 1 nM with a 0 nM injection (i.e. buffer alone) used to double reference the binding curves, the buffer used is the HBS-EP buffer. 50 mM NaOH was used to regenerate the capture surface. The data was fitted to the 1:1 model using the analysis software inherent to the ProteOn XPR36. Run 1 corresponds to the first screen of humanised CA8 variants (JO to J5 series) and run 2 to the second screen of humanised CA8 variants (J5 to J9 series). Both runs were carried out at 25° C.

The target in experiment [1] is T2, Human commercial BCMA (Homo sapiens, UniProt Q02223).
T2 construct: purchased US Biological B0410
T2 sequence (Q02223 1-184): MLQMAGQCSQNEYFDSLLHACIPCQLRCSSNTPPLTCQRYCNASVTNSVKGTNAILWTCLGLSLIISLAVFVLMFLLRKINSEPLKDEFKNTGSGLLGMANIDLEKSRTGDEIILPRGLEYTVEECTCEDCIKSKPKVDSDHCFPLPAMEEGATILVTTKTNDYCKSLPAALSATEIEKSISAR
Description: BIAcore analysis J7 to J9 series, human commercial BCMA. To be noted: 37° C.; for ka: in M-1s-1 (unit assumed); for kd: in s-1 (unit assumed). The protocol: Protein A was immobilised on a CMS chip (GE Healthcare, Cat No: BR-1005-30) by primary amine coupling and this surface was then used to capture the antibody molecules. Recombinant human BCMA (US Biological, B0410) was used as analyte at 256 nM, 64 nM, 16 nM, 4 nM and 1 nM. Regeneration of the capture surface was carried out using 50 mM NaOH. All binding curves were double referenced with a buffer injection (i.e. 0 nM) and the data was fitted to the using the 1:1 model inherent to T100 evaluation software. The run was carried out at 37° C., using HBS-EP as the running buffer.
For orientation: SPR reads the build-up and loss of mass on a sensor chip optically.

Experiment [2] concerns Cyno in house BCMA. Description: BIAcore analysis J7 to J9 series, cyno in house BCMA. To be noted: 37° C.; for ka: in M-1s-1 (unit assumed); for kd: in s-1 (unit assumed).
Chain of Cyno in house BCMA (as listed by the source): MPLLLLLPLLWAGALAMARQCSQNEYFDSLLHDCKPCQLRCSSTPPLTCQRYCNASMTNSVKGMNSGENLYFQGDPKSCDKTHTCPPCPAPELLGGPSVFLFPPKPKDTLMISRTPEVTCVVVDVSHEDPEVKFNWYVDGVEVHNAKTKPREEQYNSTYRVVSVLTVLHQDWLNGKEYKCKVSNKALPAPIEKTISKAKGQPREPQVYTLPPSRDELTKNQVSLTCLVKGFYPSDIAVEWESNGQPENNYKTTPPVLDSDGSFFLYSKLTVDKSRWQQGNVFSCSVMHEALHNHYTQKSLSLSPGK
Experiment [3] addresses T2, Human commercial BCMA. The experiment can be described thus: ProteOn analysis of CA8 chimeric and humanised constructs, commercial human BCMA. To be noted: Run 2, commercial human BCMA, 25° C. The protocol:
as §1

For experiment [4], the target named is Cyno in house BCMA. The experiment can be described thus: ProteOn analysis of CA8 chimeric and humanised constructs, cyno in house BCMA. The following applies: Run 2, Cyno in house BCMA, 25° C.

T1 sequence (Q02223 with tags, fused parts or gaps limits assumed): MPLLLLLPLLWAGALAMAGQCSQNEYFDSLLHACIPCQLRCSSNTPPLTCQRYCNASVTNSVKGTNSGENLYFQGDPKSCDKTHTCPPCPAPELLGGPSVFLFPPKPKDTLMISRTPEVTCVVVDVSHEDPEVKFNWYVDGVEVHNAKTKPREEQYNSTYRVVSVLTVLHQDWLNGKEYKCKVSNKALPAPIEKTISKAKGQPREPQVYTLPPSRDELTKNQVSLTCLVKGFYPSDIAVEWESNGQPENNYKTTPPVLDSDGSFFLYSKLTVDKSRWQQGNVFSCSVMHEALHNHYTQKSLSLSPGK

B1: CA8 humanised J9M1: humanised CA8 anti-BCMA antibody, VH J9 (SEQ ID NO:29) + VL M1 (SEQ ID NO:33) (antibody, V domains shown)
VH: QVQLVQSGAEVKKPGSSVKVSCKGSGYTFTNYWMHWVRQAPGQGLEWIGATYRGHSDTYYNQKFKGRATLTADTSTSTAYMELSSLRSEDTAVYYCTRGAIYDGYDVLDNWGQGTLVTVSS
VL: DIQMTQSPSSLSASVGDRVTITCSASQDISNYLNWYQQKPGKAPKLLIYYTSNLHSGVPSRFSGSGSGTDYTLTISSLQPEDFATYYCQQYRKLPWTFGQGTKLEIKR
modifications: Humansed antibody sequence
With B1, in the experiment with Human in house BCMA, the off rate result is “beyond the sensitivity of the assay”. In the experiment with Human commercial BCMA [1], the ka worked out at 1.96E+07 and the kd worked out at 3.50E−04. Further, in the experiment on Cyno in house BCMA [2], the ka is listed as 6.77E+05 and the kd is on record as 2.99E−04.

B2: CA8 humanised J7M1: humanised CA8 anti-BCMA antibody, VH J7 (SEQ ID NO:25) + VL M1 (SEQ ID NO:33) (antibody, V domains shown)
VH: QVQLVQSGAEVKKPGSSVKVSCKASGYTFTNYWMHWVRQAPGQGLEWMGATYRGHSDTYYNQKFKGRVTITADKSTSTAYMELSSLRSEDTAVYYCARGAIYDGYDVLDNWGQGTLVTVSS
VL: DIQMTQSPSSLSASVGDRVTITCSASQDISNYLNWYQQKPGKAPKLLIYYTSNLHSGVPSRFSGSGSGTDYTLTISSLQPEDFATYYCQQYRKLPWTFGQGTKLEIKR
modifications: Humansed antibody sequence
For the molecule B2, the off rate entry with Human in house BCMA is on record as “beyond the sensitivity of the assay”. In the experiment with Human commercial BCMA [1], this molecule yielded a ka of 2.35E+06 and a kd of 1.31E−04. In the experiment with Cyno in house BCMA [2], this molecule registered a ka of 3.70E+05 and a kd of 3.91E−04.

B3: CA8 humanised J7M2: humanised CA8 anti-BCMA antibody, VH J7 (SEQ ID NO:25) + VL M2 (SEQ ID NO:35) (antibody, V domains shown)
VH: QVQLVQSGAEVKKPGSSVKVSCKASGYTFTNYWMHWVRQAPGQGLEWMGATYRGHSDTYYNQKFKGRVTITADKSTSTAYMELSSLRSEDTAVYYCARGAIYDGYDVLDNWGQGTLVTVSS
VL: DIQLTQSPSSLSASVGDRVTITCSASQDISNYLNWYQQKPGKAPELVIYYTSNLHSGVPSRFSGSGSGTDYTLTISSLQPEDFATYYCQQYRKLPWTFGQGTKLEIKR
modifications: Humansed antibody sequence
Turning to B3, the off rate result with Human in house BCMA is recorded as “beyond the sensitivity of the assay”. In addition, in the experiment with Human commercial BCMA [1], the ka was 2.37E+06 and the kd is 1.35E−04. In the experiment with Cyno in house BCMA [2], this molecule returned a ka of 3.46E+05 and a kd of 4.47E−04.

B4: S307118G03 H5L1: humanised S307118G03, VH H5 (SEQ ID NO:87) + VL L1 (SEQ ID NO:91) (antibody, V domains shown)
VH: QVQLVQSGAEVKKPGSSVKVSCKASGYTFTDYYMKWVRQAPGQGLEWIGEIYPNNGGITYNQKFKGRATLTVDKSTSTAYMELSSLRSEDTAVYYCANGYEFDYWGQGTLVTVSS
VL: DIQMTQSPSSLSASVGDRVTITCSASQGISNYLNWYQQKPGKAPKLLIYYTSSLHSGVPSRFSGSGSGTDYTLTISSLQPEDFATYYCQQYSKLPWTFGQGTKLEIKR
modifications: Humansed antibody sequence
As to B4, the KD entry in the experiment with Human in house BCMA is “No Analysable Binding”; with Human commercial BCMA [3], “V weak signal”; on Cyno in house BCMA [4] it was “No”.

B5: S307118G03 H5L0: humanised S307118G03, VH H5 (SEQ ID NO:87) + VL L0 (SEQ ID NO:89) (antibody, V domains shown)
VH: QVQLVQSGAEVKKPGSSVKVSCKASGYTFTDYYMKWVRQAPGQGLEWIGEIYPNNGGITYNQKFKGRATLTVDKSTSTAYMELSSLRSEDTAVYYCANGYEFDYWGQGTLVTVSS
VL: DIQMTQSPSSLSASVGDRVTITCSASQGISNYLNWYQQKPGKAPKLLIYYTSSLHSGVPSRFSGSGSGTDFTLTISSLQPEDFATYYCQQYSKLPWTFGQGTKLEIKR
modifications: Humansed antibody sequence
For the molecule B5, the KD result is reported as “No Analysable Binding” with Human in house BCMA, “V weak signal” with Human commercial BCMA [3] and “No” on Cyno in house BCMA [4].
